Reference: publication PMC9535758 (EMBO Reports, 2022)

Target: T1, Human recombinant His-tagged PALB2 (human, UniProt Q86YC2 1-1186)
T1 sequence: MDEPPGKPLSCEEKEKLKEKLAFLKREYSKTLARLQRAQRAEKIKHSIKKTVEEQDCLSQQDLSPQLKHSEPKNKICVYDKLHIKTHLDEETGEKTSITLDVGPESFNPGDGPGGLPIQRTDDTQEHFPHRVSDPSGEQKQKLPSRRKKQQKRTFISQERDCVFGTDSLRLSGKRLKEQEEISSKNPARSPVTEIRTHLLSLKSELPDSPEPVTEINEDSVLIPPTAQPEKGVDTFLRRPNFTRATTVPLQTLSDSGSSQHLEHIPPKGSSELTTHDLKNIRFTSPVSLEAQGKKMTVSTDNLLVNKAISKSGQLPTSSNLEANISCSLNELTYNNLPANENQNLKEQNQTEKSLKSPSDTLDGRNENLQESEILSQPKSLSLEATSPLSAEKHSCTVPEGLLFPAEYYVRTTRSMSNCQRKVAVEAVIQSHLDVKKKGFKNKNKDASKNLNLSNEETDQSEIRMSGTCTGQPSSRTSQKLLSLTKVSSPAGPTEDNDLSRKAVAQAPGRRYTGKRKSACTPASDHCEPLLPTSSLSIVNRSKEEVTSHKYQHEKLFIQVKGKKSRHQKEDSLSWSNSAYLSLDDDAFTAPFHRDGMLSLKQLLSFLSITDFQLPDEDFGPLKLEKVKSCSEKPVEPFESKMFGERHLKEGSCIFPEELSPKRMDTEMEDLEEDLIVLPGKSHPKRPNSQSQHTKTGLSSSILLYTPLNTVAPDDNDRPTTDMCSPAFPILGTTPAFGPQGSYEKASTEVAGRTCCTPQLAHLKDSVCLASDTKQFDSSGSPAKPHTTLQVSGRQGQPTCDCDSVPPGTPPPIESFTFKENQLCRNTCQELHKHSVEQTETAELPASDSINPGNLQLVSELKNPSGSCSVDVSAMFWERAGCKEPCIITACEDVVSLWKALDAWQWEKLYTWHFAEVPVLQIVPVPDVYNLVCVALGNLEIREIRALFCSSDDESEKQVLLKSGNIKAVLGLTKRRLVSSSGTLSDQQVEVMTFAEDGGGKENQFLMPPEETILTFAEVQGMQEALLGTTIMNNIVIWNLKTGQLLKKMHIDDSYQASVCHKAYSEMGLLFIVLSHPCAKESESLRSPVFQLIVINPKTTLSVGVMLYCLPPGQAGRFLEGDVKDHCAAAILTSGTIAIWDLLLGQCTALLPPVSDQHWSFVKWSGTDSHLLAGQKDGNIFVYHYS
Test: pull-down

B1: BRCA2_(1-40)HA-His (domain or fragment)
chain: MPIGSKERPTFFEIFKTRCNKADLGPISLNWFEELSSEAP
Does B1 bind?
Result: binds
